In the DeepSol protein solubility set:

Test: soluble on expression in E. coli; label from the status in PepcDB or PDB records

Sequence	soluble on expression in E. coli
MSLRASDDKALQYAIAEITEIATGFGLDFYPMRYEICPAEIIYTFGAYGMPTRFSHWSFGKQFFRMKLQYDLGLSKIYELVINSDPCYAFLLDTNSLIQNKLIVAHVLAHCDFFKNNIRFSNTKRDMVESMSATAERVKAYEHKYGKEEVETFLDAVLAIQEHIDPSLMRPKLAWSIDDLEEEEVEKKKASQYDDLWNLDNRNKKQERSNVRKKKKIPPQPEKDLLLFIEEYSRELEDWQRDILTMMREEMLYFWPQLETKIMNEGWASFWHQRILREMDLTSDEAIEFAKLNAGVVQPSKTSINPYYLGIKMFEDIEERYNNPTEEMKRRGVKPGSGRDKIFEVREIEWDVSFLRNYLNKDLVMREDMYLFQRQGKEYKVIDKEWEHVRDQLVNMRTNGGFPYLVVEDGDYLKNGELYIKHSYEGIELDLKYLEKVLPYLHQLWGRTVHMESIVESKGVVFSYDGKMVHRKYVEGHHHHHH	not soluble
VDGDQCESNPCLNGGSCKDDINSYECWCPFGFEGKNCEL	soluble
MGSSHHHHHHSSGLVPRGSHMEAIGVLMMCPMSTYLEQELDKRFKLFRYWTQPAQRDFLALQAESIRAVVGNSNAGADAELIDALPKLEIVSSFSVGLDKVDLIKCEEKGVRVTNTPDVLTDDVADLAIGLILAVLRRICECDKYVRRGAWKFGDFKLTTKFSGKRVGIIGLGRIGLAVAERAEAFDCPISYFSRSKKPNTNYTYYGSVVELASNSDILVVACPLTPETTHIINREVIDALGPKGVLINIGRGPHVDEPELVSALVEGRLGGAGLDVFEREPEVPEKLFGLENVVLLPHVGSGTVETRKVMADLVVGNLEAHFSGKPLLTPVV	soluble
MNSPGVSANFFIPLSFDATSLIKYKLSDDLLARVAASGSLRSSSCRSAVWRLVLRCLPYETSDWEISLSRSRNLYRAHKENHLIDPHDTKFSQDPEFNNPLASIEQNPWNTFFEDNDLRDIIGKDVSRTFPEIEFFQNTSIRQMMSDILLVYAKEHPFVNYRQGMHEILAPLIFVIYSDNEAFQHAKENDELKMLTVEEEDILNCLFCKEYLEQDSYNLFCSVMLEVSRWYEEPTVTESPKRPIPKEPYMRVQDSAPASRLMEDLIDIGNLLHEIDPTLAKHLSTLDIPPQLYGIRWLRLLFGRELPLHDLLFLWDVLLIDRPIAPLAKCMFVSLLVQIRHLLLSSDYGGCLQYLMRYPPIADIDSFVKLARHYRNPKKNAKPMIKSNNFSHITVAGSSHPNRTQRPQRPPAAVNSKNDGAESPSTILALAPVFQKVKNTIRDRSNTVSGPSSPRRSNEPLREPLRTPQKKDNWANEVQMMEEQVSTLQTRLNEQDMMCCQVSKALEIYAEDVRNAKSSELCAVLSQNLLELSKTLMSIKTVPVGTSPPKHSRNGISDIQPKPRDSQPIRQHNEMVDMATKRPPL	not soluble
GMLTDMQRDSASSSTVTTEQIVYGALPLTTINEPECRAIAITSINGSATLSGVSGPMGDQTDADLLIQLRGWADAIVVGAETARKENYGPVVLPHGIKNQRQKLGRCGLPKLTLLSKSLYFDFSSELFSPDLPSELSPLVITQQPANNSEQWDQRLQKLIDVGVEVIVAPTSTNPLKIAFDALHARRLKKISIEGGPSVYRQALSLGIVDRLHLTIAPNIICPVESPLFGKISDDSFTTRLVLEMLSSSPNGLIFSRYKVIRDTLGNPTQ	soluble
MSLGPTRANPKAVKPFIEQKEKKMVLVVDWHTKTLAATMNGRRPQDEDAMVVHGPLKNFPNARLKAIFDGHGGYSVSRRCASVAYGYLGAMKNLSQESFRSACLQMDADMRADTLKGGSTGLMVIIEKVDDPESRDGIYFNVHAANVGDSRGLILHSDGTYTIMSKDHKPTAEVERERIKRAGGFLLRRLGVWRVDGRLALSRAFGDFALKDRLDMKPNEQKVVALPDVNVFKAKPGDIILMGCDELANTLKNIQWDGGTVCSRRPRGRRSRDNVSIMLTKLVKRPIRNTQVKRFDYSFTGERYVLPSEEGHHHHHH	not soluble
MPNTLKRLIPDPEVIKLQQLLSSNGYFEEIKPSHGLFDGITFDNAVLFQLQHIYKDGDPLKPDGVIGAKTWWALKNPSGEKQRNHLSASIPAGLTTKRHQLIELIIEEHSKPVFEVPDGSNRSPDIDGYWGNTGVIGLAWCCAFVSWVLKEVTDSYPIASTHHLGVQRMWRTAKRLNMTTEIPKPGDIFVQLFAGGKGHTGFVVAVTEDGETIYTCEGNCGNRLKIGKRSNNSELHFIDCLQDNQTLDFERMAFDVNSTIDNTTRLEHHHHHH	not soluble
MAHHHHHHMQQENRHLSSADLFKKFTLQNVAQIANISNKEQSQIRGELTEQYPLLADFWEDIMPKKADIMLVRCHDQVHCVTLVSSQPEVLFFRHHNSPYIPHLKLLHKYPFILPRQQVDIGGCKYVVSGANVMCPGLTSEGGYITPGLAAGAIVAIHVEQKEHAIAVGRMLMSSEEIERVNNGPGIENIHHLGDGLWMNRVLSSSHIGAR	soluble
MGSDKIHHHHHHMSSFAEFSRLALTLEPWRQHIVFVGGWAFRLYGYEPRAYTADHKPIFTQDADVAYDKRELIEGDIKTALEGAGFTEQPNLAGGFRPPAMRYNLDGDENGFYAEFLTPLTGSGKKRDGKGGLKEDATERYAGIVAQKLRFLEVLLFKPWLVTIPKEESGLDEAVADLRVPNPVSFMIQKLLIRDRREGKKRAQDVLYIHGTLQIFYGVVENDLVPIWKELEATLHANQRKSVREGVQELFSEMNDVIREAAEIPDDKLDPEAMLQLCREGFEELFGDI	not soluble
GHMPFEWVKQYDYEDIIYETYNGIAKITINRPEVHNAFRPKTVNEMIDAFTKARDDSNIGVIILTGAGGKAFCSGGDQKVRGHGGYVGEDEIPRLNVLDLQRLIRVIPKPVIAMVAGYAIGGGHVLHVVCDLTIAADNAIFGQTGPKVGSFDGGYGAGYLARIVGHKKAREIWYLCRQYTAQEALEMGLVNKVVPLEQLEEETVKWAQEILEKSPTAIRFLKAAFNADSDGLAGIQQLAGDATLLFYTTEEAKEGMRAFKEKRKPDFSQFPRFP	soluble
MIVVVNEQQVEVDEQTTIAALLDSLGFGDRGIAVALNFSVLPRSDWATKICELRKPVRLEVVTAVQGG	soluble
MIPGGNTLKETAVVPAATGYDRIAFIYDIIAGIASFDQINKSQLAFLSSIPTQSTCLILGGGTGYFLQKLLEQNATIQVTYVDASQKMIEFAQKRIAEKKPYDAHRVTFVCKQVNVFEFDTYDSIVCNYFLDLFEEADVTMLIKKFKKHLKKDGILYITDFTMPIRTGIIEWSAKAGLKVLYWFFKRTTSLSNNQLPDIESVVLKQDFIKLHSADFFKGILRCSLYR	not soluble
MQFQIGAQGDIADMLTMCNNFPGFEAPMRYMIENSHDVVTVFDGSPAVIVLDELVKADESSYLPFKMKKSYKKVDEIAAKMASEEIHFTIHLSSHSQKNVIQIFQSAYSDGYTEEDKKGKIPEGGRVKCAGTETGARSNVKCEEVAKEVNEYIDSNKDKFGDLKVESLGKADSFMKQKPRRNLFIRVPPLE	not soluble
MSLKETEIIKLFQEELKSKVLGDDAGFIKLGDRWLLLTNDMLVWRTDVPDFMTPEEAGAKVVTMNVSDIAAMGGKPIGFFFSLGLPRDINEKTLREIAKGIKRGTKRYNVEVLSGDTNESNELVIDGGAIGEAERILLRSGAKPGEVVCVTGDLGRPLTALLLWLKGEKIPREIAEKMKNPIARVREGLELANYASSAIDISDGLSKELWEISKASKVKIVIDPNSLPVHEKVKEIVKNPVEVALASGEEFELVFTISQEYLDILSFEFSIIGRVEKGEGVYTTTGEKVPMRGWEHFAGGNNDIGSEGHHHHHH	soluble
MNCRLGCGACCIAPSISSVIPGMPNGKAAGERCVQLSDDNLCLIFGSPERPAVCCDFEASLDVCGHSNEEALWLITNLESQTS	soluble
MADNYVIWFENLRMTDVERVGGKNASLGEMISQLTEKGVRVPGGFATTAEAYRAFLAHNGLSERISAALAKLDVEDVAELARVGKEIRQWILDTPFPEQLDAEIEAAWNKMVADAGGADISVAVRSSATAEDLPDASFAGQQETFLNINGLDNVKEAMHHVFASLYNDRAISYRVHKGFEHDIVALSAGVQRMVRSDSGASGVMFTLDTESGYDQVVFVTSSYGLGENVVQGAVNPDEFYVFKPTLKAGKPAILRKTMGSKHIKMIFTDKAEAGKSVTNVDVPEEDRNRFSITDEEITELAHYALTIEKHYGRPMDIEWGRDGLDGKLYILQARPETVKSQEEGNRNLRRFAINGDKTVLCEGRAIGQKVGQGKVRLIKDASEMDSVEAGDVLVTDMTDPDWEPVMKRASAIVTNRGGRTCHAAIIARELGIPAVVGCGNATELLKNGQEVTVSCAEGDTGFIYAGLLDVQITDVALDNMPKAPVKVMMNVGNPELAFSFANLPSEGIGLARMEFIINRQIGIHPKALLEFDKQDDELKAEITRRIAGYASPVDFYVDKIAEGVATLAASVYPRKTIVRMSDFKSNEYANLVGGNVYEPHEENPMLGFRGAARYVADNFKDCFALECKALKRVRDEMGLTNVEIMIPFVRTLGEAEAVVKALKENGLERGKNGLRLIMMCELPSNAVLAEQFLQYFDGFSIGSNDMTQLTLGLDRDSGLVSESFDERNPAVKVMLHLAISACRKQNKYVGICGQGPSDHPDFAKWLVEEGIESVSLNPDTVIETWLYLANELNK	soluble
MSRIVNVKLSLKRYEYEKPFHITGSVSSESRNVEVEIVLESGVKGYGEASPSFRVNGERVEALLAIENAVREMITGIDVRNYARIFEITDRLFGFPSLKAAVQFATLDALSQELGTQVCYLLGGKRDEIETDKTVGIDTVENRVKEAKKIFEEGFRVIKIKVGENLKEDIEAVEEIAKVTRGAKYIVDANMGYTQKEAVEFARAVYQKGIDIAVYEQPVRREDIEGLKFVRFHSPFPVAADESARTKFDVMRLVKEEAVDYVNIKLMKSGISDALAIVEIAESSGLKLMIGCMGESSLGINQSVHFALGTGAFEFHDLDSHLMLKEEVFRGKFIQDGPRMRVKDQ	soluble
MKQLTVEDAKQIELEILDYIDTLCKKHNINYIINYGTLIGAVRHEGFIPWDDDIDLSMPREDYQRFINIFQKEKSKYKLLSLETDKNYFNNFIKITDSTTKIIDTRNTKTYESGIFIDIFPIDRFDDPKVIDTCYKLESFKLLSFSKHKNIVYKDSLLKDWIRTAFWLLLRPVSPRYFANKIEKEIQKYSRENGQYMAFIPSKFKEKEVFPSGTFDKTIDLPFENLSLPAPEKFDTILTQFYGLEHHHHHH	not soluble
MDDVLRRNPLFAALDDEQSAELRASMSEVTLARGDTLFHEGDPGDRLYVVTEGKVKLHRTSPDGRENMLAVVGPSELIGELSLFDPGPRTATGTALTEVKLLALGHGDLQPWLNVRPEVATALLRAVARRLRKTNDAMSDLVFSD	soluble
MSLSHKSKKLLLVDDDQTVLKLMTEVLTDFGHCVTSVPSARHALNHFTSAGQAFDLLITDICMPGMNGVELIKAVRAHNGTLPIIAISGFSEPEDQNEIAHYDARMLTKPVDFQTLKQTIDALEGHHHHHH	not soluble
MRSKYIVIEGLEGAGKTTARNVVVETLEQLGIRDMVFTREPGGTQLAEKLRSLLLDIKSVGDEVITDKAEVLMFYAARVQLVETVIKPALANGTWVIGDRHDLSTQAYQGGGRGIDQHMLATLRDAVLGDFRPDLTLYLDVTPEVGLKRARARGELDRIEQESFDFFNRTRARYLELAAQDKSIHTIDATQPLEAVMDAIRTTVTHWVKELDA	soluble
MGSDKIHHHHHHMLKIKTSNLRPGIKLGKDIYSYDSQLLLTSGSTITQEHLDSFARRNIEEVFILDESPRMKPERDFEDVYQDALEVVNSFMVGAMLGSPLDFQEIDKTVDLLREQAFDAIDLFRQMRLMKNKGEYLFTHSINVSLLCILIGRWLKCDRNTIRELGIAGLLHDLGKVFIENDILNKPGKLTDQEYEKIKKHTVLGYNFICQNPDMNLEVANAALMHHERVDGSGYPSGLKGQLNFYAAVVAVADVYDAITSAHSYADKRSPYSAAEILWQESFGKLDARITKVFYDKITNFYVGNKVLLSNKKEGIVIYVDPFQPTRPIVMVEDEFYNLALDRSITIRDIID	not soluble
